Experimental data taken from US20260151494A1.

Tests used:
[1] = target: human serum albumin (human) (UniProt P02768); test: primary ELISA of colonies, luminescence; negative control antigen
[2] = target: apical domain of CD71 (Screen 3: 'cynomolgus apical domain of human CD71') (cynomolgus (as paragraph 454 words it; ambiguous)); test: primary ELISA
[3] = target: apical domain of CD71 (Screen 3: 'cynomolgus apical domain of human CD71') (cynomolgus (as paragraph 454 words it; ambiguous)); test: primary ELISA, RLU ratio to HSA

Chain of human serum albumin (human) (P02768 25-609 limits assumed): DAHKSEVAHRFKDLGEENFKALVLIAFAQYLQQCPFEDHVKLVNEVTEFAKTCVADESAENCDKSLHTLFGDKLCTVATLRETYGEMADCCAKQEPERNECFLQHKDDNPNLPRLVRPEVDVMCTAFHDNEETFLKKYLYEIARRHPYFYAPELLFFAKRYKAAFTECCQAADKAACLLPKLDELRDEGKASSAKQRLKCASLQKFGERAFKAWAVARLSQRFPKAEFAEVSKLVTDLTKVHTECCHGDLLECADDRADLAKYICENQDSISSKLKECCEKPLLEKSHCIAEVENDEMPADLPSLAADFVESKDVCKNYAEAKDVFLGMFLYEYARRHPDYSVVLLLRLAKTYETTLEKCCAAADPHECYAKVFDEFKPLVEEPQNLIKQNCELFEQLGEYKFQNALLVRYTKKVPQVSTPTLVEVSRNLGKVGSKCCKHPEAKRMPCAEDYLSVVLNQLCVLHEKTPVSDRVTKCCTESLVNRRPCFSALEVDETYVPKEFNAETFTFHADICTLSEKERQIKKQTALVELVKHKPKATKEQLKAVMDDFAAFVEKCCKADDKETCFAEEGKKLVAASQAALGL

B1: CD71-binding FN3 domain of SEQ ID NO: 117 (designed binder, not shown: small tags and cut ends)
chain: MLPAPKNLVVSRVTEDSARLSWTAPDAAFDSFFIGYLEPQPPGEAIWLLVPGSERSYDLTGLKPGTEYNVTIQGVKGGFPSTPLSAIFTT
- HSA, RLU [1]: 3750 RLU

B2: CD71-binding FN3 domain of SEQ ID NO: 100 (designed binder, not shown: small tags and cut ends)
chain: MLPAPKNLVVSRVTEDSARLSWTAPDAAFDSFYIAYAEPRPDGEAILLLVPGSERSYDLTGLKPGTEYSVLIHGVKGGLLSSPLVASFTT
- HSA, RLU [1]: 7750 RLU

B3: CD71-binding FN3 domain of SEQ ID NO: 101 (designed binder, not shown: small tags and cut ends)
chain: MLPAPKNLVVSRVTEDSARLSWTAPDAAFDSFGIGYWERRWYGEAIVLTVPGSERSYDLTGLKPGTEYEVTIRGVKGGGYSGPLSAIFTT
- HSA, RLU [1]: 4350 RLU

B4: CD71-binding FN3 domain of SEQ ID NO: 102 (designed binder, not shown: small tags and cut ends)
chain: MLPAPKNLVVSRVTEDSARLSWTAPDAAFDSFDIGYTEYGGYGEAIILQVPGSERSYDLTGLKPGTEYWVLIQGVKGGGSSVPLVAYFTT
- HSA, RLU [1]: 4550 RLU

B5: CD71-binding FN3 domain of SEQ ID NO: 103 (designed binder, not shown: small tags and cut ends)
chain: MLPAPKNLVVSRVTEDSARLSWTAPDAAFDSFYIAYAEPRPDGEAIILGVPGSERSYDLTGLKPGTEYSVLIHGVKGGLLSSPLSAYSTT
- HSA, RLU [1]: 18200 RLU

B6: CD71-binding FN3 domain of SEQ ID NO: 104 (designed binder, not shown: small tags and cut ends)
chain: MLPAPKNLVVSRVTEDSARLSWTAPDAAFDSFFIGYLEPQPPGEAIHLIVPGSERSYDLTGQKPGTEYNVTIQGVKGGFPSDPLVASFTT
- HSA, RLU [1]: 29400 RLU

B7: CD71-binding FN3 domain of SEQ ID NO: 105 (designed binder, not shown: small tags and cut ends)
chain: MLPAPKNLVVSRVTEDSARLSWTAPDAAFDSFHIVYHEPRPSGEAIWLWVPGSERSYDLTGLKPGTEYEVGIVSVKGGDLSVPLSAIFTT
- HSA, RLU [1]: 3000 RLU

B8: CD71-binding FN3 domain of SEQ ID NO: 106 (designed binder, not shown: small tags and cut ends)
chain: MLPAPKNLVVSRVTEDSARLSWTAPDAVFDSFYIAYAEPRPDGEAIGLYVPGSERSYDLTGLKPGTEYSVLIHGVKGGLLSSPLTASFTT
- HSA, RLU [1]: 2550 RLU

B9: CD71-binding FN3 domain of SEQ ID NO: 107 (designed binder, not shown: small tags and cut ends)
chain: MLPAPKNLVVSRVTEDSARLSWTAPDAAFDSFFIGYLEPQPPGEAIGLQVPGSERSYDLTGLKPGTEYNVTIQGVKGGFPSMPLSAIFTT
- HSA, RLU [1]: 3250 RLU

B10: CD71-binding FN3 domain of SEQ ID NO: 108 (designed binder, not shown: small tags and cut ends)
chain: MLPAPKNLVVSRVTEDSARLSWTAPDAAFDSFYIAYAEPRPDGEAILLQVPGSERSYDLTGLKPGTEYSVLIHGVKGGLLSSPLVAKFTT
- HSA, RLU [1]: 3350 RLU

B11: CD71-binding FN3 domain of SEQ ID NO: 109 (designed binder, not shown: small tags and cut ends)
chain: MLPAPKNLVVSRVTEDSARLSWTAPDAAFDSFFIGYLEPQPPGEAIILHVPGSERSYDLTGLKPGTEYNVTIQGVKGGFPSLPLNANFTT
- HSA, RLU [1]: 3250 RLU

B12: CD71-binding FN3 domain of SEQ ID NO: 110 (designed binder, not shown: small tags and cut ends)
chain: MLPAPKNLVVSRVTEDSARLSWTAPDAAFDSFHIVYHEPRPSGEAIYLEVPGSERSYDLTGLKPGTEYEVGIVSVKGGDLSVPLRAHFTT
- HSA, RLU [1]: 2500 RLU

B13: CD71-binding FN3 domain of SEQ ID NO: 111 (designed binder, not shown: small tags and cut ends)
chain: MLPAPKNLVVSRVTEDSARLSWTAPDAAFDSFFIGYLEPQPPGEAISLWVPGSERSYDLTGLKPGTEYNVTIQGVKGGFPSIPLWAIFTT
- HSA, RLU [1]: 2600 RLU

B14: CD71-binding FN3 domain of SEQ ID NO: 112 (designed binder, not shown: small tags and cut ends)
chain: MLPAPKNLVVSRVTEDSARLSWTAPDAAFDSFFIGYLEPQPPGEAIDLWVPGSERSYDLTGLKPGTEYNVTIQGVKGGFPSMPLSAIFTT
- HSA, RLU [1]: 2650 RLU

B15: CD71-binding FN3 domain of SEQ ID NO: 113 (designed binder, not shown: small tags and cut ends)
chain: MLPAPKNLVVSRVTEDSARLSWTAPDAAFDSFFIGYLEPQPPGEAIYLLVPGSERSYDLTGLKPGTEYNVTIQGVKGGFPSDPLSAIFTT
- HSA, RLU [1]: 2800 RLU

B16: CD71-binding FN3 domain of SEQ ID NO: 114 (designed binder, not shown: small tags and cut ends)
chain: MLPAPKNLVVSRVTEDSARLSWTAPDAAFDSFHIVYHEPRPSGEAIWLFVPGSERSYDLTGLKPGTEYEVGIVSVKGGDLSVPLSAIFTT
- HSA, RLU [1]: 11600 RLU

B17: CD71-binding FN3 domain SEQ ID NO: 275 (designed binder)
chain: MSLPAPKNLVVSRVTEDSARLSWTAPDAAFDSFEIGYFENLYLGEAIVLTVPGSERSYDLTGLKPGTEYWVQIGGVKGGNWSAPLVAEFTT
- RLU [2]: 5.44e+06 RLU
- Apical domain:HSA [3]: 515

B18: CD71-binding FN3 domain SEQ ID NO: 276 (designed binder)
chain: MSLPAPKNLVVSRVTEDSARLSWTAPDAAFDSFEIAYFELDYVGEAIVLTVPGSERSYDLTGLKPGTEYWVQIGGVKGGTWSGPLSAIFTI
- RLU [2]: 4.54e+06 RLU
- Apical domain:HSA [3]: 90

B19: CD71-binding FN3 domain SEQ ID NO: 277 (designed binder)
chain: MSLPAPKNLVVSRVTEDSARLSWTAPDAAFDSFEIGYFELTYYGEAIVLTVPGSERSYDLTGLKPGTEYWVQIGGVKGGGFSEPLSAIFTT
- RLU [2]: 5.75e+06 RLU
- Apical domain:HSA [3]: 383

B20: CD71-binding FN3 domain SEQ ID NO: 278 (designed binder)
chain: MSLPAPKNLVVSRVTEDSARLSWTAPDAAFDSFEIGYFENLYLGEAIVLTVPGSERSHDLTGLKPGTEYWVQIGGVKGGNWSAPLSAIFTT
- RLU [2]: 5.1e+06 RLU
- Apical domain:HSA [3]: 641

B21: CD71-binding FN3 domain of SEQ ID NO: 115 (designed binder, not shown: small tags and cut ends)
chain: MLPAPKNLVVSRVTEDSARLSWTAPDAAFDSFFIGYLEPQPPGEAIDLYVPGSERSYDLTGLKPGIEYNVTIQGVKGGFPSLPLQAHFTT
- HSA, RLU [1]: 5200 RLU

B22: CD71-binding FN3 domain SEQ ID NO: 279 (designed binder)
chain: MSLPAPKNLVVSRVTEDSARLSWTAPDAAFDSFFIGYLEPQPPGEAIHLYVPGSERSYDLTGLKPGTEYNVTIQGVKGGNWSAPLSAIFTT
- RLU [2]: 5.54e+06 RLU
- Apical domain:HSA [3]: 680

B23: CD71-binding FN3 domain SEQ ID NO: 280 (designed binder)
chain: MSLPAPKNLVVSRVTEDSARLSWTALDAAFDSFEIGYFENLYLGEAIVLTVPGSERSYDLTGLKPGTEYWVQIGGVKGGNWSAPLSAIFTT
- RLU [2]: 4.97e+06 RLU
- Apical domain:HSA [3]: 160

B24: CD71-binding FN3 domain SEQ ID NO: 281 (designed binder)
chain: MSLPAPKNLVVSRVTEDSARLSWTAPDAAFDSFFIGYLEPQPPGEAIALYVPGSERSYDLTGLKPGTEYNVTIQGVKGGFPSEPLIANFTT
- RLU [2]: 6.93e+06 RLU
- Apical domain:HSA [3]: 413

B25: CD71-binding FN3 domain SEQ ID NO: 282 (designed binder)
chain: MSLPAPKNLVVSRVTEDSARLSWTAPDAAFDSFDIGYFELTWYGEAIVLTVPGSERSYDLTGLKPGTEYWVSIGGVKGGRFSEPLYARFTT
- RLU [2]: 4.85e+06 RLU
- Apical domain:HSA [3]: 365

B26: CD71-binding FN3 domain SEQ ID NO: 283 (designed binder)
chain: MSLPAPKNLVVSRVTEDSARLSWTAPDAAFDSFEIAYQELSLWGEAIVLTVPGSERSYDLTGLKPGTEYYVHIGGVKGGIWSSPLSAYSTT
- RLU [2]: 6.14e+06 RLU
- Apical domain:HSA [3]: 229

B27: CD71-binding FN3 domain SEQ ID NO: 284 (designed binder)
chain: MSLPAPKNLVVSRVTEDSARLSWTAPDAAFDSFEIGYWENAYKGEAIVLTVPGSERSYDLTGLKPGTEYMVFIGGVKGGVWSVPLSAIFTT
- RLU [2]: 4.41e+06 RLU
- Apical domain:HSA [3]: 363

B28: CD71-binding FN3 domain SEQ ID NO: 285 (designed binder)
chain: MSLPAPKNLVVSRVTEDSARLSWTATDAAFDSFEIGYWENAYKGEAIVLTVPGSERSYDLTGLKPGTEYVVFIGGVKGGVWSVPLSAIFTT
- RLU [2]: 5.13e+06 RLU
- Apical domain:HSA [3]: 368

B29: CD71-binding FN3 domain SEQ ID NO: 286 (designed binder)
chain: MSLPAPKNLVVSRVTEDSARLSWTAPDAAFDSFEIVYAEPVRFGEAIVLTVPGSERSYDLTGLKPGTEYWVQIGGVKGGEWSSPLSAIFTT
- RLU [2]: 5.31e+06 RLU
- Apical domain:HSA [3]: 262

B30: CD71-binding FN3 domain of SEQ ID NO: 116 (designed binder, not shown: small tags and cut ends)
chain: MLPAPKNLVVSRVTEDSARLSWTAPDAAFDSFYIAYAEPRPDGEAILLLVPGSERSYDLTGLKPGTEYSVLIHGVKGGLLSSPLIAGFTT
- HSA, RLU [1]: 2750 RLU

B31: CD71-binding FN3 domain SEQ ID NO: 289 (designed binder)
chain: MSLPAPKNLVVSRVTEDSARLSWTAPDAAFDSFEIAYFEIAWLGEAIVLTVPGSERSYDLTGLKPGTEYWVQIGGVKGGAYSTPLSAIFTT
- RLU [2]: 5.2e+06 RLU
- Apical domain:HSA [3]: 112

B32: CD71-binding FN3 domain SEQ ID NO: 290 (designed binder)
chain: MSLPAPKNLVVSRVTEDSARLSWTAPDAAFDSFFIGYLEPQPPGEAIHLYVPGSERSYDLTGLKPGTEYNVTIQGVKGGFPSEPLVATFTT
- RLU [2]: 6.87e+06 RLU
- Apical domain:HSA [3]: 158

B33: CD71-binding FN3 domain SEQ ID NO: 292 (designed binder)
chain: MSLPAPKNLVVSRVTEDSARLSWTAPDAAFDSFEIGYWENAYKGEAIVLTVPGSERSYDLTGLKPGTEYVVFIGGVKGGVWSVSLSAIFTT
- RLU [2]: 5.29e+06 RLU
- Apical domain:HSA [3]: 355

B34: CD71-binding FN3 domain SEQ ID NO: 293 (designed binder)
chain: MSLPAPKNLVVSRVTEDSARLSWTAPDAAFDSFFIGYLEPQPPGEAIDLYVPGSERSYDLTGLKPGTEYNVTIQGVKGGFPSHPLVATFTT
- RLU [2]: 6.72e+06 RLU
- Apical domain:HSA [3]: 605

B35: CD71-binding FN3 domain SEQ ID NO: 294 (designed binder)
chain: MSLPAPKNLVVSRVTEDSARLSWTAPDAAFDSFFIGYLEPQPLGEAIHLFVPGSERSYDLTGLKPGTEYNVTIQGVKGGFPSEPLIASFTT
- RLU [2]: 7.4e+06 RLU
- Apical domain:HSA [3]: 245

B36: CD71-binding FN3 domain SEQ ID NO: 295 (designed binder)
chain: MSLPAPKNLVVSRVTEDSARLSWTAPDAAFDSFFIGYLEPQPPGEAIDLYVPGSERSYDLTGLKPGTEYNVTIQGVKGGFPSEPLVATFTT
- RLU [2]: 6.71e+06 RLU
- Apical domain:HSA [3]: 474

B37: CD71-binding FN3 domain SEQ ID NO: 296 (designed binder)
chain: MSLPAPKNLVVSRVTEDSARLSWTAPDAAFDSFDIGYFELTWYGEAIVLTVPGSERSYDLTGLKPGTEYWVSIGGVKGGIWSSPLSAIFTT
- RLU [2]: 4.82e+06 RLU
- Apical domain:HSA [3]: 141
